This is an account of results in article PMC6704107 (2019).

First the molecules themselves.
B1: Adeno-associated virus receptor (AAVR), wild-type, PKD1-5 domains [not stated] / Adeno-associated virus 1 (AAV1) particle, wild-type capsid [adeno-associated virus 1 (AAV1)] (parent complex)
chain 1: MEKRLGVKPNPASWILSGYYWQTSAKWLRSLYLFYTCFCFSVLWLSTDASESRCQQGKTQFGVGLRSGGENHLWLLEGTPSLQSCWAACCQDSACHVFWWLEGMCIQADCSRPQSCRAFRTHSSNSMLVFLKKFQTADDLGFLPEDDVPHLLGLGWNWASWRQSPPRAALRPAVSSSDQQSLIRKLQKRGSPSDVVTPIVTQHSKVNDSNELGGLTTSGSAEVHKAITISSPLTTDLTAELSGGPKNVSVQPEISEGLATTPSTQQVKSSEKTQIAVPQPVAPSYSYATPTPQASFQSTSAPYPVIKELVVSAGESVQITLPKNEVQLNAYVLQEPPKGETYTYDWQLITHPRDYSGEMEGKHSQILKLSKLTPGLYEFKVIVEGQNAHGEGYVNVTVKPEPRKNRPPIAIVSPQFQEISLPTTSTVIDGSQSTDDDKIVQYHWEELKGPLREEKISEDTAILKLSKLVPGNYTFSLTVVDSDGATNSTTANLTVNKAVDYPPVANAGPNQVITLPQNSITLFGNQSTDDHGITSYEWSLSPSSKGKVVEMQGVRTPTLQLSAMQEGDYTYQLTVTDTIGQQATAQVTVIVQPENNKPPQADAGPDKELTLPVDSTTLDGSKSSDDQKIISYLWEKTQGPDGVQLENANSSVATVTGLQVGTYVFTLTVKDERNLQSQSSVNVIVKEEINKPPIAKITGNVVITLPTSTAELDGSKSSDDKGIVSYLWTRDEGSPAAGEVLNHSDHHPILFLSNLVEGTYTFHLKVTDAKGESDTDRTTVEVKPDPRKNNLVEIILDINVSQLTERLKGMFIRQIGVLLGVLDSDIIVQKIQPYTEQSTKMVFFVQNEPPHQIFKGHEVAAMLKSELRKQKADFLIFRALEVNTVTCQLNCSDHGHCDSFTKRCICDPFWMENFIKVQLRDGDSNCEWSVLYVIIATFVIVVALGILSWTVICCCKRQKGKPKRKSKYKILDATDQESLELKPTSRAGIKQKGLLLSSSLMHSESELDSDDAIFTWPDREKGKLLHGQNGSVPNGQTPLKARSPREEIL
chain 2: MAADGYLPDWLEDNLSEGIREWWDLKPGAPKPKANQQKQDDGRGLVLPGYKYLGPFNGLDKGEPVNAADAAALEHDKAYDQQLKAGDNPYLRYNHADAEFQERLQEDTSFGGNLGRAVFQAKKRVLEPLGLVEEGAKTAPGKKRPVEQSPQEPDSSSGIGKTGQQPAKKRLNFGQTGDSESVPDPQPLGEPPATPAAVGPTTMASGGGAPMADNNEGADGVGNASGNWHCDSTWLGDRVITTSTRTWALPTYNNHLYKQISSASTGASNDNHYFGYSTPWGYFDFNRFHCHFSPRDWQRLINNNWGFRPKRLNFKLFNIQVKEVTTNDGVTTIANNLTSTVQVFSDSEYQLPYVLGSAHQGCLPPFPADVFMIPQYGYLTLNNGSQAVGRSSFYCLEYFPSQMLRTGNNFTFSYTFEEVPFHSSYAHSQSLDRLMNPLIDQYLYYLNRTQNQSGSAQNKDLLFSRGSPAGMSVQPKNWLPGPCYRQQRVSKTKTDNNNSNFTWTGASKYNLNGRESIINPGTAMASHKDDEDKFFPMSGVMIFGKESAGASNTALDNVMITDEEEIKATNPVATERFGTVAVNFQSSSTDPATGDVHAMGALPGMVWQDRDVYLQGPIWAKIPHTDGHFHPSPLMGGFGLKNPPPQILIKNTPVPANPPAEFSATKFASFITQYSTGQVSVEIEWELQKENSKRWNPEVQYTSNYAKSANVDFTVDNNGLYTEPRPIGTRYLTRPL

The variants in the experiment derive from B1. Description: SPR (BIAcore); parent: 13.9 nM. Background: SPR reads the build-up and loss of mass on a sensor chip optically.
Take chain 1 S425A: the Kd turned out to be 3.68 µM.

On to chain 1 T426A, for which the Kd turned out to be 46.9 µM.

Turning to chain 1 V427A, the Kd turned out to be 35.8 µM.

The Kd is a measure of binding affinity in units of concentration.
